A short description of this data set: self-splicing fitness, log relative to wild type (ln ratio); higher = more splicing; Tetrahymena group I intron in knt gene, E. coli kanamycin selection, DiMSum; sequences stand for … in CUCUCU…GGAGGGAAAAGUUAUCAGGCAUGCACCUGGUAGCUAGUCUUUAAACCAAUAGAUUGCAUCGGUUUAAAAGGCAAGACCGUCAAAUUGCGGGAAAGGGGUCAACAGCCGUUCAGUACCAAGUCUCAGGGGAAACUUUGAGAUGGCCUUGCAAAGGGUAUGGUAAUAAGCUGACGGACAUGGUCCUAACCACGCAGCCAAGUCCUAAGUCAACAGAUCUUCUGUUGAUAUGGAUGCAGUUCACAGACUAAAUGUCGGUCGGGGAAGAUGUAUUCUUCUCAUAAGAUAUAGUCGGACCUCUCCUUAAUGGGAGCUAGCGGAUGAAGUGAUGCAACACUGGAGCCGCUGGGAACUAAUUUGUAUGCGAAAGUAUAUUGAUUAGUUUUGGAGUACUCGUGGUCG
In outline: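 Pooled colonies went to amplicon sequencing on an Illumina HiSeq 2500 after six replicate transformations. The plates were LB agar with 100 μg/mL carbenicillin, 50 μM IPTG and 0.2% rhamnose, with or without 25 μg/mL kanamycin, incubated overnight at 37°C or 30°C. The E. coli BL21(DE3) library had all eight P1ex-region intron nucleotides randomised, the intron placed in the knt kanamycin-resistance gene on pET-22b(+). DiMSum fitness is the error-weighted combination of replicate fold changes, kanamycin against none, normalised to wild type.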

± gives the uncertainty stated by the source.

Consider GCUAAGCAAUAUUACGGUUU, for which the “self-splicing fitness (ln)” value is -0.872 ± 0.069 (30 °C) and -0.522 ± 0.095 (37 °C).
The like results for ACGGAGCAAUAUUACGAUGA were, in that order, -2.56 ± 0.12 and -2.57 ± 0.19.
As for UACAAGCAAUAUUACGGGGC, the “self-splicing fitness (ln)” value runs as follows: (30 °C) -5.04 ± 0.34; (37 °C) -2.46 ± 0.17.
In the case of UGGCAGCAAUAUUACGAUAA, the “self-splicing fitness (ln)” value is, setting by setting: (30 °C) -0.124 ± 0.1; (37 °C) 0.0812 ± 0.1.
As to GCCCAGCAAUAUUACGGUCU, the “self-splicing fitness (ln)” value reads like this: (30 °C) -1.97 ± 0.063; (37 °C) -0.732 ± 0.081.
On the same counts, the results for AUACAGCAAUAUUACGCAGG are -2.78 ± 0.14 and -0.332 ± 0.11.
With CUUUAGCAAUAUUACGGAGU, the “self-splicing fitness (ln)” value (37 °C) is -2.46 ± 0.48.
Consider CUGAAGCAAUAUUACGUGUU, for which the “self-splicing fitness (ln)” value by setting is: (30 °C) -3.7 ± 0.14; (37 °C) -2.13 ± 0.17.
As to AUAGAGCAAUAUUACGUUCC, the “self-splicing fitness (ln)” value is -2.27 ± 0.22 (30 °C) and -1.53 ± 0.23 (37 °C).
With GAUUAGCAAUAUUACGCCCC, the “self-splicing fitness (ln)” value runs as follows: (30 °C) -1.52 ± 0.46; (37 °C) -0.314 ± 0.48.
Take UAUCAGCAAUAUUACGUUAC: the “self-splicing fitness (ln)” value (30 °C) was -4.75 ± 0.39 and the “self-splicing fitness (ln)” value (37 °C) was -2.6 ± 0.21.
On the same counts, the results for CCAUAGCAAUAUUACGACGA are -3.14 ± 0.21 and -1.42 ± 0.14.
For the sequence GUUAAGCAAUAUUACGGCAA, the “self-splicing fitness (ln)” value was 0.045 ± 0.2 (30 °C) and -0.394 ± 0.22 (37 °C).
For the sequence CGACAGCAAUAUUACGGCCC, the “self-splicing fitness (ln)” value runs as follows: (30 °C) -0.607 ± 0.19; (37 °C) -0.549 ± 0.24.
The like results for GAAGAGCAAUAUUACGACUU were, in that order, -0.765 ± 0.12 and 0.131 ± 0.14.
With AACCAGCAAUAUUACGGCCU, the “self-splicing fitness (ln)” value by setting is: (30 °C) 0.12 ± 0.075; (37 °C) -0.853 ± 0.082.
The like results for AAUGAGCAAUAUUACGUGUU were, in that order, -4.51 ± 0.23 and -2.85 ± 0.22.
The like results for GUCUAGCAAUAUUACGUUUG were, in that order, -2.11 ± 0.088 and -1.62 ± 0.11.
The like results for AGGUAGCAAUAUUACGUGUU were, in that order, -2.894 ± 0.016 and -1.6 ± 0.034.
As to CUGGAGCAAUAUUACGAGGA, the “self-splicing fitness (ln)” value (30 °C) was -3.18 ± 0.33.
For the sequence GCUUAGCAAUAUUACGUUUG, the “self-splicing fitness (ln)” value runs as follows: (30 °C) -2.23 ± 0.12; (37 °C) -1.58 ± 0.14.
On the same counts, the results for CUUCAGCAAUAUUACGGUCU are -2.93 ± 0.15 and -2.21 ± 0.2.
Regarding AGACAGCAAUAUUACGGGGG, the “self-splicing fitness (ln)” value is, setting by setting: (30 °C) -3.63 ± 0.26; (37 °C) -2.79 ± 0.23.
The like results for ACAAAGCAAUAUUACGAUCU were, in that order, -0.717 ± 0.067 and -0.0747 ± 0.083.
On the same counts, the results for CAGCAGCAAUAUUACGGAGA are -3.3 ± 0.31 and -3.02 ± 0.22.
The like results for UCUGAGCAAUAUUACGGGCA were, in that order, -3.41 ± 0.33 and -2.49 ± 0.16.
As to CUAGAGCAAUAUUACGAUGG, the “self-splicing fitness (ln)” value was -0.193 ± 0.11 (30 °C) and 0.418 ± 0.14 (37 °C).
On the same counts, the results for CAGGAGCAAUAUUACGUGGA are -3.47 ± 0.2 and -3.3 ± 0.26.
The like results for UGCUAGCAAUAUUACGGGCC were, in that order, -1.55 ± 0.14 and -1.33 ± 0.15.
In the case of UGUUAGCAAUAUUACGAAGA, the “self-splicing fitness (ln)” value (37 °C) is -1.54 ± 0.4.
AAGAAGCAAUAUUACGCGGC: the “self-splicing fitness (ln)” value runs as follows: (30 °C) -3.5 ± 0.49; (37 °C) -2.17 ± 0.44.
On the same counts, the results for CCACAGCAAUAUUACGCGGC are -3.19 ± 0.24 and -3.09 ± 0.35.
On the same counts, the results for ACUAAGCAAUAUUACGUGUA are -2.6 ± 0.13 and -1.38 ± 0.12.
The like results for UUUCAGCAAUAUUACGUAAU were, in that order, -2.89 ± 0.14 and -1.58 ± 0.16.
In the case of UCAUAGCAAUAUUACGUCAG, the “self-splicing fitness (ln)” value reads like this: (30 °C) -2.96 ± 0.18; (37 °C) -1.36 ± 0.15.
As to UUAGAGCAAUAUUACGGCCU, the “self-splicing fitness (ln)” value (30 °C) was -4.22 ± 0.39.
Turning to GGUCAGCAAUAUUACGCACA, the “self-splicing fitness (ln)” value was -0.667 ± 0.082 (30 °C) and 0.412 ± 0.12 (37 °C).
On the same counts, the results for CAGCAGCAAUAUUACGCAGU are -3.81 ± 0.18 and -3.35 ± 0.22.

The record behind these values is the supplement of paper PMC7877785.
